Bounds are passed on as bounds.

For the assay, the target named is T1, Transforming growth factor-β2 (TGF-β2).
T1 sequence (P61812 303-414, species assumed, looked up): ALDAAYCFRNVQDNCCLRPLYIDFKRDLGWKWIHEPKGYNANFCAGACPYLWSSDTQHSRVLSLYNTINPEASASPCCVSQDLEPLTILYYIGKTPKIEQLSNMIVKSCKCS

B1: TGF-βRII-Fc (muTGFbRII-mFc) (Fc fusion)
chain: IPPHVPKSVNSDVMASDNGGAVKLPQLCKFCDVRLSTCDNQKSCMSNCSITAICEKPHEVCVAVWRKNDKNITLETVCHDPKLTYHGFTLEDAASPKCVMKEKKRAGETFFMCACNMEECNDYIIFSEEYTTSSPDLLLVIIQ
B1 displayed an IC50 of TGF-βRII-Fc against TGF-β2 (480 pg/mL) signalling in A549 cells with the (CAGA)12 luciferase reporter above 88000.

The values are drawn from publication PMC9714796.
